# Data published in patent publication US20170290876A1 (Novartis, published 2017).
# Residue numbers refer to the chain shown, from its start. Names may count otherwise.
# T1: human VEGF (human, UniProt P15692 207-395, biotinylated (site not stated))
# T1 construct: Biotinylated human VEGF generated internally; also called hVEGF; hVEGF-biotin
# T1 sequence: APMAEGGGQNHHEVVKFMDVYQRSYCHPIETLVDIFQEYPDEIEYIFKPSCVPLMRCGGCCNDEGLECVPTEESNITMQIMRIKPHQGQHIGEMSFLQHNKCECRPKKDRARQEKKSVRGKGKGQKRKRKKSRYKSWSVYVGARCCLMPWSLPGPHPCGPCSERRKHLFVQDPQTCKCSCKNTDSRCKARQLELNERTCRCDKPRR
# B1: NVS4 heavy chain variant D31N (Fab, V domains shown)
# VH: EVQLVESGGGLVQPGGSLRLSCTASGFSLTNYYYMTWVRQAPGKGLEWVGFIDPDDDPYYATWAKGRFTISRDNSKNTLYLQMNSLRAEDTAVYYCAGGDHNSGWGLDIWGQGTLVTVSS
# VL: EIVMTQSPSTLSASVGDRVIITCQASEIIHSWLAWYQQKPGKAPKLLIYLASTLASGVPSRFSGSGSGAEFTLTISSLQPDDFATYYCQNVYLASTNGANFGQGTKLTVLK
# notes: CDR variant of NVS4
# B2: NVS4 heavy chain variant D56N (Fab, V domains shown)
# VH: B1 VH with N31D, D56N
# VL: B1 VL
# notes: CDR variant of NVS4
# B3: NVS4 light chain variant Y92F (Fab, V domains shown)
# VH: B1 VH with N31D
# VL: B1 VL with Y92F
# notes: CDR variant of NVS4
# B4: NVS4 heavy chain variant Y59F (Fab, V domains shown)
# VH: B1 VH with N31D, Y59F
# VL: B1 VL
# notes: CDR variant of NVS4
# B5: NVS4 heavy chain variant N102K (Fab, V domains shown)
# VH: B1 VH with N31D, N102K
# VL: B1 VL
# notes: CDR variant of NVS4
# B6: NVS4 light chain variant T53K (Fab, V domains shown)
# VH: B1 VH with N31D
# VL: B1 VL with T53K
# notes: CDR variant of NVS4
# B7: HC1.1T (Fab, V domains shown)
# VH: B1 VH with N31S, D55Q, D56N, D57N, D108N
# VL: B1 VL
# notes: Tagged heavy chain CDR variant HC1.1 with NVS4 light chain
# B8: NVS4 heavy chain variant D55N + D56N (Fab, V domains shown)
# VH: B1 VH with N31D, D55N, D56N
# VL: B1 VL
# notes: CDR variant of NVS4
# B9: NVS4 light chain variant T96R (Fab, V domains shown)
# VH: B1 VH with N31D
# VL: B1 VL with T96R
# notes: CDR variant of NVS4
# B10: NVS4 heavy chain variant D100N (Fab, V domains shown)
# VH: B1 VH with N31D, D100N
# VL: B1 VL
# notes: CDR variant of NVS4
# B11: NVS4 heavy chain variant D31S (Fab, V domains shown)
# VH: B1 VH with N31S
# VL: B1 VL
# notes: CDR variant of NVS4
# B12: NVS4 heavy chain variant Y59H (Fab, V domains shown)
# VH: B1 VH with N31D, Y59H
# VL: B1 VL
# notes: CDR variant of NVS4
# B13: NVS4 heavy chain variant D108Q (Fab, V domains shown)
# VH: B1 VH with N31D, D108Q
# VL: B1 VL
# notes: CDR variant of NVS4
# B14: HC1T (Fab, V domains shown)
# VH: B1 VH with N31S, D55Q, D56N, D57N, D100S, D108N
# VL: B1 VL
# notes: Tagged heavy chain CDR variant HC1 with NVS4 light chain
# B15: NVS4 light chain variant S95K (Fab, V domains shown)
# VH: B1 VH with N31D
# VL: B1 VL with S95K
# notes: CDR variant of NVS4
# B16: NVS4 heavy chain variant D57N (Fab, V domains shown)
# VH: B1 VH with N31D, D57N
# VL: B1 VL
# notes: CDR variant of NVS4
# B17: NVS4 heavy chain variant D55Q (Fab, V domains shown)
# VH: B1 VH with N31D, D55Q
# VL: B1 VL
# notes: CDR variant of NVS4
# B18: HC1.2T (Fab, V domains shown)
# VH: B1 VH with N31S, D55Q, D56N, D57N
# VL: B1 VL
# notes: Tagged heavy chain CDR variant HC1.2 with NVS4 light chain
# B19: NVS4 heavy chain variant D55Q + D56N (Fab, V domains shown)
# VH: B1 VH with N31D, D55Q, D56N
# VL: B1 VL
# notes: CDR variant of NVS4
# B20: HC2T (Fab, V domains shown)
# VH: B1 VH with D55Q, D56N, D100N
# VL: B1 VL
# notes: Tagged heavy chain CDR variant HC2 with NVS4 light chain
# B21: NVS4 heavy chain variant D100N + H101K (Fab, V domains shown)
# VH: B1 VH with N31D, D100N, H101K
# VL: B1 VL
# notes: CDR variant of NVS4
# B22: NVS4 light chain variant H30K (Fab, V domains shown)
# VH: B1 VH with N31D
# VL: B1 VL with H30K
# notes: CDR variant of NVS4
# B23: NVS4 heavy chain variant H101K (Fab, V domains shown)
# VH: B1 VH with N31D, H101K
# VL: B1 VL
# notes: CDR variant of NVS4
# B24: NVS4 heavy chain variant D108N (Fab, V domains shown)
# VH: B1 VH with N31D, D108N
# VL: B1 VL
# notes: CDR variant of NVS4
# B25: NVS4 heavy chain variant D31S + Y32K (Fab, V domains shown)
# VH: B1 VH with N31S, Y32K
# VL: B1 VL
# notes: CDR variant of NVS4
# B26: NVS4 heavy chain variant Y34H (Fab, V domains shown)
# VH: B1 VH with N31D, Y34H
# VL: B1 VL
# notes: CDR variant of NVS4
# B27: NVS4 light chain variant I28K (Fab, V domains shown)
# VH: B1 VH with N31D
# VL: B1 VL with I28K
# notes: CDR variant of NVS4
# B28: NVS4 heavy chain variant D55N (Fab, V domains shown)
# VH: B1 VH with N31D, D55N
# VL: B1 VL
# notes: CDR variant of NVS4
# Biological target: T1, human VEGF
# Test: Biacore SPR, hVEGF
# Protocol: At first, individual CDR residues were substituted and the affinity for hVEGF was measured by Biacore as described below. […] HC8T, and HC9T and the affinity of the resulting peptide-tagged Fab for both HA and hVEGF was measured by Biacore as described below (Table 17).
# Affinity of optimized HA-binding peptide tags for HA and human VEGF were measured by Biacore. […] In order to determine target kinetics, two different formats were utilized. […] The second format is an anti-fab capture method in which the fab protein samples are captured and the target proteins flowed over at various concentrations.
# The sample compartment which includes the analytes, ligands, and regeneration buffer, is kept at 15° C. All other running conditions were carried out at either 25° C. or 37° C. in 1×HBSE+P buffer. […] Data was collected at 10 Hz and analyzed using the Biacore T200 Evaluation Software (GE Healthcare®). This program uses a global fitting analysis method for the determination of rate and affinity constants for each interaction.
Binder,Kd [nM],koff [s⁻¹],kon [M⁻¹ s⁻¹]
B1,0.00409,4.7e-05,1.15e+07
B2,0.00765,4.84e-05,6.33e+06
B3,0.0415,7.84e-05,1.89e+06
B4,0.0311,0.000104,3.34e+06
B5,0.0169,4.84e-05,4.77e+06
B6,0.00282,1.3e-05,4.6e+06
B7,0.0779,0.00854,1.1e+08
B8,0.108,0.000951,8.82e+06
B9,0.00244,1.37e-05,5.6e+06
B10,0.00549,2.57e-05,4.68e+06
B11,0.00886,4.67e-05,5.27e+06
B12,0.0563,0.000119,2.11e+06
B13,0.00668,4.54e-05,6.8e+06
B14,0.0883,0.00852,9.65e+07
B15,0.0819,0.000482,5.88e+06
B16,0.132,0.0014,1.06e+07
B17,0.0823,0.000541,6.57e+06
B18,0.0414,0.00456,1.1e+08
B19,0.0909,0.000656,7.22e+06
B20,0.0111,0.000862,7.8e+07
B21,0.368,0.000363,983000
B22,0.0355,0.000149,4.22e+06
B23,0.593,0.000773,1.3e+06
B24,0.00985,5.73e-05,5.82e+06
B25,0.185,0.000958,5.18e+06
B26,0.15,0.000445,2.97e+06
B27,0.00534,3e-05,5.62e+06
B28,0.103,0.000654,6.35e+06
